Data: the nanobody polyreactivity screen of Harvey et al. (2022)

Test: yeast display, Sf9 membrane polyspecificity reagent, FACS + sequencing; frameworks hold sequencing errors
In short: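 After 36–48 hours of galactose induction, yeast (Saccharomyces cerevisiae BJ5465) displaying a synthetic nanobody library were stained at 4 °C for 1 hour with 10% biotinylated, detergent-solubilized Sf9 membrane reagent. Streptavidin microbeads enriched the stained cells before FACS sorting into low and high (top ~1%) gates on anti-HA and streptavidin fluorescence. Each clone's polyreactivity label reflects its gate of origin.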

QVLLVESGGGLVQAGGSLRVSCAASGLIFSRYTMGGYRQAPGKERELVAAISKTGSSTYYAVSVKGRFTISRDNAKNTVYLQMKSLKPEDTAVYYCATTPTGRKKGDYWGQGTQVTVSS
polyreactivity (PSR sort gate): high polyreactivity

QVQLVESGGGLVQAGGSLRLSCAASGRIFSEYALGWYRQAPGKERELVAAITRRGGSTYYADSVKGRFTISRYNAKNTVYLQMNSLKPEDTAVYYCNALLTGGYQDSYPADYWGQGTQVTVSS
polyreactivity (PSR sort gate): high polyreactivity

QVQLVESGGGLVQAGGSLRLSCAASGIIFTGNAMGWYRQAPGKERELVAAITSGDTTNYADSVKGRFTISRDNAKNTVYLQKNSLKPEDTAVYYCAKELQVRQAGDYWGQGTQVTVSS
polyreactivity (PSR sort gate): low polyreactivity

QVQLVESGGGLVQAGGSLRLSCAASGSTSYYNAMGWYRQAPGKERELVAAISYSGGRTYYADSVKGRFTISRDNAKNTVYLQMNSLKPEDTAVYYCAKTFRGQPYLRYRYYYWGQGTQVTVSS
polyreactivity (PSR sort gate): high polyreactivity

QVQLVESGGGLVQAGGSLRLSCAASGSTFDPYAMGWYRQAPGKEREFVAAISGSGGSTYYADSVKGRFTISRDNAKNTVYLQMNSLKPEDTAVYYCAKDSFPWVDDDYWGQGTQVTVSS
polyreactivity (PSR sort gate): low polyreactivity

QVQLVESGGGLVQAGGSLRLSCAASGSTLDYNAMGWYRQATGKERELVAAINWSGGRTYYADSVKGRFTISRDNAKNTVYLQMNSLKPEDTAVYFCAAVDYKAKGYGYWGQGTQVTVSS
polyreactivity (PSR sort gate): high polyreactivity

QVQLVESVGGLVQAGGSLRLSCAASGFTFSTNAMGWYRQAPGKERELVAAISRGGSTNYADSVKGRFTISRDNAKNTVYLQMNSLKPEDTAVYYCNAYLSPDEEEYYWGQGTQVTVSS
polyreactivity (PSR sort gate): low polyreactivity

QVQLVESGGGLVQAGGSLRLSCAASGRTFWGYAMGWYRQAPGKERELVAAISWSGTSTYYADSVKGRFTISRDNAKNTVYLQMNSLKPEDTAVYYCARAVNDWRRKYNYWGQGTQVTVSS
polyreactivity (PSR sort gate): high polyreactivity

QVQLVESGGGLVQAGGSLRLSCAASGSIFNYYTMGWYRQAPGKERELVAAITWSGGRTYYADSVKGRFTISRDNAKNTVYLQMNSLKPEDTAVYYCNAVAYKPGGGDDFESWGQGTQLTVSS
polyreactivity (PSR sort gate): high polyreactivity

QVQLVESGGGLVQAGGSLRLSCAASGSIFGRYAMGWYRQAPGKERELVAAISYSGGSTYYADSVKGRFTISRDNAKNTVYLQMKSLKPEDTAFYYCAAEPSYYTRWFDGHYYYWGQGSQVTVSS
polyreactivity (PSR sort gate): high polyreactivity

QVQLVESGGGLVQAGGSLRLSCAASGSIFGYYAMGWYRQAPGKERELVAAISSSGASTYYADSVKGRFTISRDNAKNTVYLQMNSLKPEDTAVYYCNAARRYPTRGGYWGQGTQVTVSS
polyreactivity (PSR sort gate): high polyreactivity

QVPLVETGGGLVQAGGSLRLSCAASGRTFNVYAMGWYRQAPGKERELVASITWDDGTTYNADSVKGRFTNSRDNAKNTVYLQMNSLKPEVTAVYYCAADGIYRGAWSTVYESPGYDYWGQGTQVTVSS
polyreactivity (PSR sort gate): low polyreactivity

QVQLVESGGGIVQAGGSLRLSCAASGFIFRYYAMGWYRQAPGKERELVAAISWSGGSTYYADSVKGRFTISRDNAKNTVYLQMNSLKPEETAVYYCAAEPTGWVWYAGYGYYWGQGTQVTVSS
polyreactivity (PSR sort gate): high polyreactivity

QVQLVESGGGLVQAGGSLRLSCAASGGTLQGNAMGWYRQAPGKERELVAAISSRGGRTYYADSVKGRFTISRDNAKNTVYLQMNSLKPEDTAVYYCAAVQKGDSTLLRTKGGYWGQGTQVTVSS
polyreactivity (PSR sort gate): high polyreactivity

QVQLVESGGGLVQAGGSLRLSCAASGFIFGHYAMGWYRPAPGKERELVATIRRDPSRTYYADSVKGRFTISRDNAKNTVYLQMNSLKPEDTAVYYCATAQYIWGRSKYYYWGQGTQVTVSS
polyreactivity (PSR sort gate): high polyreactivity

QVQLVESGGGLVQAGGSLRLSCADSGFILTYYAMGWYRQAPGKERELVAAISWSGGSTYYADSVKGRFTISRDNAKNTVYLQMNSLKPEDTAVYYCAAEKRYSSYDYWGQGTQVTVSS
polyreactivity (PSR sort gate): high polyreactivity

QVQLVESGGGLVQAGGSLRLSCAASGRFLWYNAMGWYRQAPGTERELVAAITRGGSTHYADSVKGRFTLSRDNAKNTVYLQMNSLKPEDTAVYYCAVSYRSFPYYWERYYSWGQGTQVTVSS
polyreactivity (PSR sort gate): high polyreactivity

QVQLVESGGGLVHAGGSLRLSCAASGFTFTAYARGWYRQATGKERELVAAINWSGSRTYNADSVKGRFTISRDNAKNTVYLQMNSLKPEDSAVYYCNTATSKSSYRHYDYWGQGTLVTVSS
polyreactivity (PSR sort gate): high polyreactivity

QVQLVESGGGLVQAGGSLRFSCAGSGSTFRNYAMGWYRQAPGQERAFVATISSAGGTTYYADSVKGRFTISRDKAKNTLYVQMNSLNPEDTAVYYCAADQHSYRYGGYYYWGQGTQVTVSS
polyreactivity (PSR sort gate): low polyreactivity

QVHLVESGGGLVQAGGSLRLSCAASGSTFYPYSMGWYRQAPGKERELVAAISSGGSTSYADSVKGRFTISRDNAKNTVYLQMNSLKPDDTAVYYCAALYRIFSYDYWGQGTQVTVSS
polyreactivity (PSR sort gate): low polyreactivity

QVQLVESGGGLVQAGGSLRLICAASGRIFPGYTMGWYRQAPGKEREFFAAISYSGGSTYADSVKGRFTISRDNAKNTVYLQMNSLKPEDTAVYYCAVVLQHWLDMYYWGQVTQVTVSS
polyreactivity (PSR sort gate): low polyreactivity

QVQLVESGGGLVQAGGSLRLSCAASGIIFRYYAMGWYRQAPGKERELVAAITVNGGRTYYADSVKGRFTISRDNAKNTVYLQMNSLKPEDTAVYYCAAYPHRYRVTPYPSVVSLDNYWGQGTQVTVSS
polyreactivity (PSR sort gate): low polyreactivity

QVQLVESGGGLVQAGGSLRLSCAASGLTFLKNAMGWYRQAPGKERELVAAISDGGSTNYADSVKGRFTISRDNAKNTVYLQMNSLKPEDTAVYYCAAVYTSASYGSWGQGTQVTVSS
polyreactivity (PSR sort gate): low polyreactivity

QVQLVESGGGLVQAGGSLRLSCAASGFTFRTNVMGWYRQAPGKERELVASISSTGSTNYADSVKGRFTISRDNAKNTVYLQMNSLKPEDTAVYYCARRYRYRYNYWGQGTQVTVSS
polyreactivity (PSR sort gate): high polyreactivity

QVQLVESGGGLVQAGGSLRLSCAASGRIFRGYAMGWYRQAPGKERELVATINASGGTTYYADSVKGRFTISRDNAKNTVYLQMNSLKPEDTAVYYCNARYRRFFSGYGYWGQGTQVTVSS
polyreactivity (PSR sort gate): high polyreactivity

QVQLVESGGGLVQAGGSLRLSCAASGRIFEINAMGWYRQAPGKERELVAGISYSGGSTYYADSVKGRFTISRDNAKNTVYLQMNSLKPEDTAVYYCAALFQSYQITYDSWGQGTQVTVSS
polyreactivity (PSR sort gate): low polyreactivity

QVQLVESGGGLDQAGGSLRLSCAASGSIFPFYAMGWYRQAPGKERELVAAISDRGGSTYYADSVKGRFTISRDNAKNSVYLQMNSLKPEATAVYYCAKGGEVSQGYTDEYDYWGQGTQVTVSS
polyreactivity (PSR sort gate): low polyreactivity

QVQLVESGGGLVQEGGSLRLSCAASGRIFPKYAMGWYRQAPAKERELVAAISQRGGSTYYADSVKGRFTISRDNAKNTVYLQMNSLKPEDTAVYYCAASYYRQSCEYDYWGQGTQVTVSS
polyreactivity (PSR sort gate): low polyreactivity

QVQLVESGGGLVQAGGSLRLSCPASGFTFYRYAMGWYRQAPGKERELVASISWRGGNTYYADSVKGRFTISRDNEKNTVYLQMNSLKPEDTAVYYCAARGGVLKGYYYWGQGTQVTVSS
polyreactivity (PSR sort gate): high polyreactivity

QVQLVDSGGGLVQAGVSLRLSCAASGSTFVGYAIGSYSQAPGKERELVAAISRSGGRTYYADSVKGRFTISRDKAKNTVYLQMNSLKPEDTAVYYCYPYYIASTFDEWGQGTQVTVSS
polyreactivity (PSR sort gate): high polyreactivity

QVQLVESGGGLVQAGGSLRLSCAASGFIFASYTLGWYRQAPGKERELVAAISRAGSTYYADSVKGRFTISRDNAKNTVYLQMNSLKPEDTAVYYCNAVSWRTSRYDYWGQGTQVTVSS
polyreactivity (PSR sort gate): high polyreactivity

QVHLVESGGGLVQAGGSLRLSCAASGSIFGRYAMGWYRQAPGKEREFVAAISRGATNTYYADSVKGRFTISRDNAKNTVYLQMNSLKPEDTAVYYCARTQRYDYGYDYWGQGTQVTVSS
polyreactivity (PSR sort gate): low polyreactivity
